This note sets out measurements from IntAct's records for PubMed 31515488.

B1: Protein sprouty homolog 1 (Homo sapiens), O43609 (parent)
chain: MDPQNQHGSGSSLVVIQQPSLDSRQRLDYEREIQPTAILSLDQIKAIRGSNEYTEGPSVVKRPAPRTAPRQEKHERTHEIIPINVNNNYEHRHTSHLGHAVLPSNARGPILSRSTSTGSAASSGSNSSASSEQGLLGRSPPTRPVPGHRSERAIRTQPKQLIVDDLKGSLKEDLTQHKFICEQCGKCKCGECTAPRTLPSCLACNRQCLCSAESMVEYGTCMCLVKGIFYHCSNDDEGDSYSDNPCSCSQSHCCSRYLCMGAMSLFLPCLLCYPPAKGCLKLCRRCYDWIHRPGCRCKNSNTVYCKLESCPSRGQGKPS
partner: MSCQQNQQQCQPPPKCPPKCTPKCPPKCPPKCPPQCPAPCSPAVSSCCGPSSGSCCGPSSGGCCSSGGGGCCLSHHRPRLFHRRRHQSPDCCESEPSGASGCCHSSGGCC
B2: Zyxin (Homo sapiens), Q15942 (parent)
chain: MAAPRPSPAISVSVSAPAFYAPQKKFGPVVAPKPKVNPFRPGDSEPPPAPGAQRAQMGRVGEIPPPPPEDFPLPPPPLAGDGDDAEGALGGAFPPPPPPIEESFPPAPLEEEIFPSPPPPPEEEGGPEAPIPPPPQPREKVSSIDLEIDSLSSLLDDMTKNDPFKARVSSGYVPPPVATPFSSKSSTKPAAGGTAPLPPWKSPSSSQPLPQVPAPAQSQTQFHVQPQPQPKPQVQLHVQSQTQPVSLANTQPRGPPASSPAPAPKFSPVTPKFTPVASKFSPGAPGGSGSQPNQKLGHPEALSAGTGSPQPPSFTYAQQREKPRVQEKQHPVPPPAQNQNQVRSPGAPGPLTLKEVEELEQLTQQLMQDMEHPQRQNVAVNELCGRCHQPLARAQPAVRALGQLFHIACFTCHQCAQQLQGQQFYSLEGAPYCEGCYTDTLEKCNTCGEPITDRMLRATGKAYHPHCFTCVVCARPLEGTSFIVDQANRPHCVPDYHKQYAPRCSVCSEPIMPEPGRDETVRVVALDKNFHMKCYKCEDCGKPLSIEADDNGCFPLDGHVLCRKCHTARAQT
partner: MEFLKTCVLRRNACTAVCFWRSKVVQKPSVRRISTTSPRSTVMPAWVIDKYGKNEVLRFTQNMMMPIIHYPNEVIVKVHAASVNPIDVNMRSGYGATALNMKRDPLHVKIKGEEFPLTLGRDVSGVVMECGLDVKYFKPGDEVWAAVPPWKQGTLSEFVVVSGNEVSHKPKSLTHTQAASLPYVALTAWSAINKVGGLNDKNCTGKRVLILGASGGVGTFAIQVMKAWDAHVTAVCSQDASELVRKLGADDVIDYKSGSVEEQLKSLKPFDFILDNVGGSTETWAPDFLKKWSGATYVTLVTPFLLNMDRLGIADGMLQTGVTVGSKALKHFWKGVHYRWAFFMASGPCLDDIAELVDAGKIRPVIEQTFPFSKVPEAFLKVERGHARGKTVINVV
B3: Alpha-taxilin (Homo sapiens), P40222 (parent)
chain: MKNQDKKNGAAKQSNPKSSPGQPEAGPEGAQERPSQAAPAVEAEGPGSSQAPRKPEGAQARTAQSGALRDVSEELSRQLEDILSTYCVDNNQGGPGEDGAQGEPAEPEDAEKSRTYVARNGEPEPTPVVNGEKEPSKGDPNTEEIRQSDEVGDRDHRRPQEKKKAKGLGKEITLLMQTLNTLSTPEEKLAALCKKYAELLEEHRNSQKQMKLLQKKQSQLVQEKDHLRGEHSKAVLARSKLESLCRELQRHNRSLKEEGVQRAREEEEKRKEVTSHFQVTLNDIQLQMEQHNERNSKLRQENMELAERLKKLIEQYELREEHIDKVFKHKDLQQQLVDAKLQQAQEMLKEAEERHQREKDFLLKEAVESQRMCELMKQQETHLKQQLALYTEKFEEFQNTLSKSSEVFTTFKQEMEKMTKKIKKLEKETTMYRSRWESSNKALLEMAEEKTVRDKELEGLQVKIQRLEKLCRALQTERNDLNKRVQDLSAGGQGSLTDSGPERRPEGPGAQAPSSPRVTEAPCYPGAPSTEASGQTGPQEPTSARA
partner: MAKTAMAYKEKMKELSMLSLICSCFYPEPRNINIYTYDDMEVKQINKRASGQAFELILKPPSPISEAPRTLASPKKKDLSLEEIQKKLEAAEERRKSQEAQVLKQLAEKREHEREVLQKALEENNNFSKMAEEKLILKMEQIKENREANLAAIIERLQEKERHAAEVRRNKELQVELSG
B4: Probable RNA-binding protein EIF1AD (Homo sapiens), Q8N9N8 (parent)
chain: MSQATKRKHVVKEVLGEHIVPSDQQQIVRVLRTPGNNLHEVETAQGQRFLVSMPSKYRKNIWIKRGDFLIVDPIEEGEKVKAEISFVLCKDHVRSLQKEGFWPEAFSEVAEKHNNRNRQTQPELPAEPQLSGEESSSEDDSDLFVNTNRRQYHESEEESEEEEAA
partner: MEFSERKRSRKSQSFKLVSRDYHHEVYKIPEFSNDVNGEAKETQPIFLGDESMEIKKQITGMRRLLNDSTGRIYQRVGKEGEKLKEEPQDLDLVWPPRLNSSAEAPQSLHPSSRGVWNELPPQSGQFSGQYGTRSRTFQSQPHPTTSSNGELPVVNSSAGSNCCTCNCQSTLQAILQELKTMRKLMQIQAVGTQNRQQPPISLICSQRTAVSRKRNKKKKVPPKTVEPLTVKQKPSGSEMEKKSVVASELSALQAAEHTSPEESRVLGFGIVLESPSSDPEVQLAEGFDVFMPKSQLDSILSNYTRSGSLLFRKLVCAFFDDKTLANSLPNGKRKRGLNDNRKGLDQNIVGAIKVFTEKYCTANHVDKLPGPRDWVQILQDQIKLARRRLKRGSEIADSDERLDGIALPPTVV
B5: Ubiquitin-conjugating enzyme E2 E3 (Homo sapiens), Q969T4 (parent)
chain: MSSDRQRSDDESPSTSSGSSDADQRDPAAPEPEEQEERKPSATQQKKNTKLSSKTTAKLSTSAKRIQKELAEITLDPPPNCSAGPKGDNIYEWRSTILGPPGSVYEGGVFFLDITFSSDYPFKPPKVTFRTRIYHCNINSQGVICLDILKDNWSPALTISKVLLSICSLLTDCNPADPLVGSIATQYLTNRAEHDRIARQWTKRYAT
partner: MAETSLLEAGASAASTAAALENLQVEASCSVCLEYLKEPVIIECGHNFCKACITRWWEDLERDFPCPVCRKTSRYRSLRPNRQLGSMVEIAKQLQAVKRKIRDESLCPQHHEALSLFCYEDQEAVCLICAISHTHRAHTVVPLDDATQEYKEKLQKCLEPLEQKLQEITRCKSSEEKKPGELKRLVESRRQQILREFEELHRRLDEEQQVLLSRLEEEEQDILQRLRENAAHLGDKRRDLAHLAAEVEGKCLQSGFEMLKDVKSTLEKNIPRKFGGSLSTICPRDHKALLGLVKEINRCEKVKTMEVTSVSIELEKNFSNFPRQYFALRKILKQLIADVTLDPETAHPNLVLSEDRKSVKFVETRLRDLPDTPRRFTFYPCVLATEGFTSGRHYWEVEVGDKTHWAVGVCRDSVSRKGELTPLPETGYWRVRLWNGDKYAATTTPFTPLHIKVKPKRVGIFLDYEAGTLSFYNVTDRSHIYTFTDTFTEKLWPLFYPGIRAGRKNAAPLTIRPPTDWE
B6: E3 ubiquitin-protein ligase CHIP (Homo sapiens), Q9UNE7 (parent)
chain: MKGKEEKEGGARLGAGGGSPEKSPSAQELKEQGNRLFVGRKYPEAAACYGRAITRNPLVAVYYTNRALCYLKMQQHEQALADCRRALELDGQSVKAHFFLGQCQLEMESYDEAIANLQRAYSLAKEQRLNFGDDIPSALRIAKKKRWNSIEERRIHQESELHSYLSRLIAAERERELEECQRNHEGDEDDSHVRAQQACIEAKHDKYMADMDELFSQVDEKRKKRDIPDYLCGKISFELMREPCITPSGITYDRKDIEEHLQRVGHFDPVTRSPLTQEQLIPNLAMKEVIDAFISENGWVEDY
B7: Tuftelin-interacting protein 11 (Homo sapiens), Q9UBB9 (parent)
chain: MSLSHLYRDGEGRIDDDDDERENFEITDWDLQNEFNPNRQRHWQTKEEATYGVWAERDSDDERPSFGGKRARDYSAPVNFISAGLKKGAAEEAELEDSDDEEKPVKQDDFPKDFGPRKLKTGGNFKPSQKGFAGGTKSFMDFGSWERHTKGIGQKLLQKMGYVPGRGLGKNAQGIINPIEAKQRKGKGAVGAYGSERTTQSMQDFPVVDSEEEAEEEFQKELSQWRKDPSGSKKKPKYSYKTVEELKAKGRISKKLTAPQKELSQVKVIDMTGREQKVYYSYSQISHKHNVPDDGLPLQSQQLPQSGKEAKAPGFALPELEHNLQLLIDLTEQEIIQNDRQLQYERDMVVNLFHELEKMTEVLDHEERVISNLSKVLEMVEECERRMQPDCSNPLTLDECARIFETLQDKYYEEYRMSDRVDLAVAIVYPLMKEYFKEWDPLKDCTYGTEIISKWKSLLENDQLLSHGGQDLSADAFHRLIWEVWMPFVRNIVTQWQPRNCDPMVDFLDSWVHIIPVWILDNILDQLIFPKLQKEVENWNPLTDTVPIHSWIHPWLPLMQARLEPLYSPIRSKLSSALQKWHPSDSSAKLILQPWKDVFTPGSWEAFMVKNIVPKLGMCLGELVINPHQQHMDAFYWVIDWEGMISVSSLVGLLEKHFFPKWLQVLCSWLSNSPNYEEITKWYLGWKSMFSDQVLAHPSVKDKFNEALDIMNRAVSSNVGAYMQPGARENIAYLTHTERRKDFQYEAMQERREAENMAQRGIGVAASSVPMNFKDLIETKAEEHNIVFMPVIGKRHEGKQLYTFGRIVIYIDRGVVFVQGEKTWVPTSLQSLIDMAK
partner: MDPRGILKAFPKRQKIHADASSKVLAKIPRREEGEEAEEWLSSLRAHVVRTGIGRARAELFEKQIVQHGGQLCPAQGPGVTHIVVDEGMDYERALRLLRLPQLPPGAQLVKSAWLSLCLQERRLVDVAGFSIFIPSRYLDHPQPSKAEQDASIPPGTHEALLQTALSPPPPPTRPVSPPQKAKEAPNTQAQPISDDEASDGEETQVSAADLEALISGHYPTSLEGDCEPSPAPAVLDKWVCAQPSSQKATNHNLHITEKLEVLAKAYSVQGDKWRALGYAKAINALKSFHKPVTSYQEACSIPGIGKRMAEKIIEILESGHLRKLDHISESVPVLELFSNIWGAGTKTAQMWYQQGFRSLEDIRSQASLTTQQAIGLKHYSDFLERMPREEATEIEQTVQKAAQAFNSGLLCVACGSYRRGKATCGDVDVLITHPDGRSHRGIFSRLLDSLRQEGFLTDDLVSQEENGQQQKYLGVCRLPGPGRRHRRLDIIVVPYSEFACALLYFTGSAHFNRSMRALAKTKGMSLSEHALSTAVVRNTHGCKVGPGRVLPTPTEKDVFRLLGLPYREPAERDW
B8: MIF4G domain-containing protein (Homo sapiens), A9UHW6 (parent)
chain: MGEPSREEYKIQSFDAETQQLLKTALKDPGAVDLEKVANVIVDHSLQDCVFSKEAGRMCYAIIQAESKQAGQSVFRRGLLNRLQQEYQAREQLRARSLQGWVCYVTFICNIFDYLRVNNMPMMALVNPVYDCLFRLAQPDSLSKEEEVDCLVLQLHRVGEQLEKMNGQRMDELFVLIRDGFLLPTGLSSLAQLLLLEIIEFRAAGWKTTPAAHKYYYSEVSD
partner: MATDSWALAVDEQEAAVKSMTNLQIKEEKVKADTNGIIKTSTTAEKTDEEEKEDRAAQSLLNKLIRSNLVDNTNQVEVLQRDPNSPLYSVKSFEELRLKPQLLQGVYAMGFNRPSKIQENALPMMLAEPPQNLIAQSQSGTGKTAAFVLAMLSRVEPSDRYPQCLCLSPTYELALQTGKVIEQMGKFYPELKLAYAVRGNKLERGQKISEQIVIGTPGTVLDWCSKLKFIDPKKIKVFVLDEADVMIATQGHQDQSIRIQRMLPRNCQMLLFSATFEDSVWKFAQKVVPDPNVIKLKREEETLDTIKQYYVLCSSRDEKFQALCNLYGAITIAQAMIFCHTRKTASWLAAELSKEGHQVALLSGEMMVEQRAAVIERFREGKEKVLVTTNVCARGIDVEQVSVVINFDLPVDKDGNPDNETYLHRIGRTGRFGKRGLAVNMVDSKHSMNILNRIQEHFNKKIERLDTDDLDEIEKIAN

In one assay the parent is B1. The settings on record: with lce2d_human LCE2D.
Take R296K: the “effect of a mutation on the interaction” value is given as “with no effect”.

In the next assay the parent is B2. The settings on record: with rt4i1_human RTN4IP1, Q8WWV3.
Turning to R563Q, the “effect of a mutation on the interaction” value was “with no effect”.

In the case of R489W, the “effect of a mutation on the interaction” value is on record as “with no effect”.

Variants of B3 are the subject of a further assay. The settings on record: with stmn2_human STMN2, Q93045.
Take P541S: the “effect of a mutation on the interaction” value was “with no effect”.

With S514R, the “effect of a mutation on the interaction” value was “with no effect”.

The next assay covers variants of B4. The following applies: with bend7_human BEND7, Q8N7W2.
In the case of R48C, the “effect of a mutation on the interaction” value is reported as “with no effect”.

Variants of B5 are the subject of a further assay. The following applies: with tri39_human TRIM39, Q9HCM9.
Turning to S117T, the “effect of a mutation on the interaction” value is listed as “with no effect”.

The variants in a further assay derive from B6. The settings on record: with noe3_human OLFM3, Q96PB7.
Sequence of noe3_human OLFM3, Q96PB7 (Q96PB7 whole entry): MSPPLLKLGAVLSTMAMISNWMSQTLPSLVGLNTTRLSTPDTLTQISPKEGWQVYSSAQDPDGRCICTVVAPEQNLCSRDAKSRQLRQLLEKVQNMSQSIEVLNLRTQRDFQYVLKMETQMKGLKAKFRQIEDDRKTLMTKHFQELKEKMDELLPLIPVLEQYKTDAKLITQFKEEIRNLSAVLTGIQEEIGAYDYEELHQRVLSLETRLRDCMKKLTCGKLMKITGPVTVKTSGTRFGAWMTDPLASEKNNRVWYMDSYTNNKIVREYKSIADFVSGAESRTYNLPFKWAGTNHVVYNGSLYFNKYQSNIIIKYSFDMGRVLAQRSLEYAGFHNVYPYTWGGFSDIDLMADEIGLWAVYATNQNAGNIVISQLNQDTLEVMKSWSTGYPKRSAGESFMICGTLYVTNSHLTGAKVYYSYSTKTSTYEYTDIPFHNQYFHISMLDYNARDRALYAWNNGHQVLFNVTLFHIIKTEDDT
Q181H: the “effect of a mutation on the interaction” value was “with no effect”.

The variants in another assay derive from B7. The settings on record: with dpoll_human POLL.
With R8Q, the “effect of a mutation on the interaction” value is given as “with no effect”.

For the variant S688L, the “effect of a mutation on the interaction” value was “with no effect”.

In the next assay the parent is B8. The following applies: with dd19a_human DDX19A.
With E160K, the “effect of a mutation on the interaction” value was “with no effect”.
